The source of these data is PMC12373997.

First the molecules themselves.
B1: D. melanogaster augmin N-clamp with Dgt6^3A-mut (K82A, R88A, K96A) (complex)
chain 1: MSDAVDKMLAGMAANRQTMNRQLAKIDEIMERSNNTLLHIESNSKAFSQNVALSETQKMYNLRPEAEMTLSKILENFKLLMSSSDQREETYSALEGCLAYRHRVEHLGSSVRKLVALYDTVGQMKNSQEEQYASEDSP
chain 2: MDRTIIAPWKAEEKEQSEKLHRKLQGLALVHPLPDELRKLIAWDMFLKPNQVAFVHVMHYLFRLLDPAEFKRRFFWPITDKASEANFASSTVEYLAHLNEKHQLHWANIKSYLVVMPGGMRFINFLLEFVGFVIQELIKQREKSLGLEAGTPNVSAKVMARQNAVMKEYASSYVVNLEENTALLRDKTQKIRRLMADLSADMGVPEEQLADDGFLDEFEATAALGVERVITQPTERKFDLEASLCGLKEAIDLFQVKQAENNQSKEAVEKALRGMRVLFDCDAVTEGDFYDPLGASKMDALLNGFNRISGTIAEQLDANDHYNESNAFVTTDLQALRVELSQSEVQLNNLLKKLNEPSKKDKGSANASGSARVQTLQPATPRFESVISSKFVSTPPIRIDMGGGGGRNAPVRLALQDDFNGKQFDALSNSLLAPAPPRSARKLKALDQSTGIDLNGTLNRSKINDPMQMLRTIHKNTSKVKAAPQANLSSLGSKWKQMQASFGFDEAPVPGAAVISPQTSPTDPSDPFTPLSGSECTRIERIPRTSENNTSLIAKSAAVIKVLEVSRNVLNLSTSPSGRLDALVPHTESHQQDVAPRLQLNDRTINDSLQLDPDFNIENDKNAFNVSHKFDFDQIGGEDDLQNISDSVLKDIIF
chain 3: METNVDFSSISSKLYRKYAQHVRNLKDVCVSKTVMKPGAFFDSLQQMMEEEAAATTPPRDLSSVADYAELFKTLEEYPANLQKMPKKRELQRTNSTLLRGADESVAMGINTSNVSLSLTRLEEQRSAVDVYNDFKGFQRKLAKIYDEAAALDTTESIYKQKLTQLHGFAQQLEKLMPTGGESPPDAFTSEQQEKLLTIAANMEQLNYLRSNSLQLPNPNEILATGSLAARLEMFVEVLTYTLLQVSSYNMAMI
chain 4: METPPTPTTTTPPSLTTEGTMDDIQYLLHLEAMRRFQEDSRNVKRQVEEQVRIWLDAKCEYQRDFGRLARLLKCGALQAAVDAHRVSDVNQVDQAAKDIASLRSKLGSDLRPAILDSNDVKQCLEHLNTTHKPRLNLCRQQREFAQNQEALRSLRTAVDGLENGMEMGMIQAMDRLVEDLLPPRETNN
B2: D. melanogaster augmin N-clamp with Msd5^Δ81–93 (loop deletion) (complex)
chain 1: B1 chain 1
chain 2: B1 chain 2 with A82K, A88R, A96K
chain 3: METNVDFSSISSKLYRKYAQHVRNLKDVCVSKTVMKPGAFFDSLQQMMEEEAAATTPPRDLSSVADYAELFKTLEEYPANNSTLLRGADESVAMGINTSNVSLSLTRLEEQRSAVDVYNDFKGFQRKLAKIYDEAAALDTTESIYKQKLTQLHGFAQQLEKLMPTGGESPPDAFTSEQQEKLLTIAANMEQLNYLRSNSLQLPNPNEILATGSLAARLEMFVEVLTYTLLQVSSYNMAMI
chain 4: B1 chain 4
B3: D. melanogaster augmin N-clamp, wild type (Msd1, Dgt6, Msd5-EGFP-HIS8, Dgt4-HIS8) (complex)
chain 1: B1 chain 1
chain 2: B1 chain 2 with A82K, A88R, A96K
chain 3: B1 chain 3
chain 4: B1 chain 4

Numbering of substitutions follows the chain as printed. In names and notes the source's numbering stands.

This assay deals with Taxol-stabilized microtubules polymerised from purified porcine brain tubulin (porcine) (UniProt P02550). The assay can be described thus: co-sedimentation; tubulin co-sedimentation: taxol-stabilized MTs (varied, α/β-tubulin heterodimer molarity) with 1 µM purified N-clamp, 0.25 mg/ml BSA, BRB80-MT buffer (80 mM PIPES, 1 mM MgCl2, 1 mM EGTA, 12.5% glycerol, pH 6.8), 20 min at room temperature, 200,000 g 10 min 27 °C; SDS-PAGE densitometry of pellet; apparent Kd from a quadratic fit.
As to B1, the Kd was determined as 25500 nM. Regarding B2, the Kd was 1000 nM. For B3, the Kd came out at 400 nM.
